Experimental data from the DeepSol protein solubility set.

Assay: soluble on expression in E. coli; label from the status in PepcDB or PDB records

For “MPPEMEGFLYLKSDGRKSWKKHYFVLRPSGLPPEMEGFLYLKSDGRKSWKKHYFVLRPSGLMYHDRRRTGFRQYETYMKQKQSADWQLDELLEELEALETQLNSSNGGDQLLLGVSGIPASSSRENVKSISTLPPPPPALSYHQTPQQPQLLHHHNNHLGYQNGIHQITSINSAASSCSSPDGDSAFGDSSSTESSNNRCRNSAFSSNDSCRDSLNTPSPTQVSPRNGELNAEEAKAQKIRQALEKMKEAKVTKIFVKFFVEDGEALQLLIDERWTVADTLKQLAEKNHIALMEDHCIVEEYPELYIKRVYEDHEKVVENIQMWVQDSPNKLYFMRRPDKYAFISRPELYLLTPKTSDHMEIPSGDQWTIDVKQKFVSEYFHREPVVYYAPKSKKPTTKDLTCLMNLHSNQVYTGIGWEKKYKSPTPWCISIKLTALQMKRSQFIKYICAEDEMTFKKWLVALRIAKNGAELLENYERACQIRRETLGPASSMSAASSSTAISEVPHSLSHHQRTPSVASSIQLSSHMMNNPTHPLSVNVRNQSPASFSVNSCQQSHPSRTSAKLEIQYDEQPTGTIKRAPLDVLRRVSRASTSSPTIPQEESDSDEEFPAPPPVASVMRMPPPVTPPKPCTPLTSKKAPPPPPKRSDTTKLQSASPMAPAKNDLEAALARRREKMATMEC”, the “soluble on expression in E. coli” value was “not soluble”.
With “DEETKAFEALLSNIVKPVASDIQARTVVLTWSPPSSLINGETDESSVPELYGYEVLISSTGKDGKYKSVYVGEETNITLNDLKPAMDYHAKVQAEYNSIKGTPSEAEIFTTLSCEPDIPNPPRI” the “soluble on expression in E. coli” value was “soluble”.
For “SDQVFVMGHRYPDMDVIGSSLGVMRIAEMNNRNAYVVVEPGKMSPDVKRLMNEIEEYPNVIKNIVTPQVALENITEKSLLVVVDTHKPSMVINKELLDSATNVVVVDHHRRSEEFVGNPVLVYIEPYASSTAELITELFEYQPDLEQVGKIEATALLSGIVVDTKNFTLRTGSRTFDAASYLRSLGADTILVQQFLKEDI”, the “soluble on expression in E. coli” value was “not soluble”.
For “DLVIIVDDERRIVDVNAAATALFDGDQNTLLGRSLPQASPTLAETVPGPGERTQTETALERDGSVRYYDVRVIPLYRAYGVVSGHLISLRD”, the “soluble on expression in E. coli” value was “not soluble”.
For “LKLTPRQYNDVYEVNYDFINNVRYLMDDVVRGYDYALERYYDFLDVRNDDLRWILSSAQYRRFMRAEHFYRPIYAHENKWHFRIYLVYNNVNFFYYGKPHHYASYCGGHYRTHFNNVSYYKTHYRDHYRHDVYDGHYRIRHDRMTYDMHRRRDFNIAVRPPQKEHHRPATPPQTRPNRPQIHPDRP”, the “soluble on expression in E. coli” value was “not soluble”.
For “MAVSQGVSLKEDLKDLVRKAEEIGRELSGKLKTNQLRKFHGHLTKIWSNYIYKKKDYRDNPEKFNEEILNELHFMKIFLAYQVGRDIEGISELKEILEPLIDEIKTPDEFEKFKKFYDAILAYHKFHSESEKSNRRTARR”, the “soluble on expression in E. coli” value was “not soluble”.
For “MALDKLLENEAQSEIERIRAEARGRAEKIVADARERAQTLLDSRQRLLENQRQAGLVRARSAADLELNAARLTASESGVTQVYQMVEDYLGNVTSAPEYGNILSRLIQEGLQAVPDAEAIEVNPAEMNVARHLVSGVEVRENPSIKGGVRVVARGGKSGVTNTLSGRLERVKADMAPQISRLLAE”, the “soluble on expression in E. coli” value was “soluble”.
In the case of “MGSDKIHHHHHHMITTWKHHETIEKAKRNAEQKIVSNVEHVEHIALVNQKRVLDAFKRKQVSEHHFTPSTGYGYDDLGRETLEAVYADVFGAETALVRPQIISGTHAIATVLFGLLRPGDELLYITGKPYDTLEEVIGIRGEEGGGSLKDFGITYHAVPLTAEQKVDKAAVKAAMNERTKVIGIQRSKGYADRPSFSINEIEQMVQFVKGINPNVIVFVDNCYGEFVEAKEPCHVGVDVIAGSLIKNPGGGIVKTGGYVAGKAPYVKQASYRLAAPGIGTEGGATLYSLLEMFQGLFLAPHVVSQAVKGAHFTAAFLDELGMRTSPRYDEQRTDLIQSVQFPDREKMIAFCQAIQAASPIDAHVTPQPSSMPGYEDPVIMAAGTFIQGASIELTADGPVRPPYIAYVQGGLTYEHVKLAVMQAADEMLSLETKGTPS”, the “soluble on expression in E. coli” value is reported as “not soluble”.
For “MRLFFQHFLLFYAASAYNVSVNTNRSFLFGDVLEPLCSINVTGQNLTRSELIELFHKWEKYTSSQISSSSSISDYRKAMPCFPGPNLNLTSSNSDMIPQYPNCETFVNISKTTFGEANDLLEEVKKVRGVEQMDVSLKSVINSLSSRLQNLIDYLPDGATKNKTQERLSTLIEIGNQKLPETLRNSTRNQPPTQSTKSEFNPFELLSCFNISMMKTATVSGQTIGSIACSKFKLCSFSAVTSNPCLSNLRITEAQYDSVVNKTIAELIGEKLGGEQVQKKLGSAIGQFFGEHPRSKRTPKPRCENCTEEEYEDVTPLSDQVKMDGREELEESDDRSSGVESDESSGEVIDESYGKIDELDQEMSKRSTDSRKMSHEEITQAKIAKIRESIIDQLLTKTDDPDNSTDFQPTKRSAALEASQDNFKEALDNFRTEHIEDMTEGSGQESDRPTDSTKLYGSTQSPSEIIRPSIRTLNMETESSPVDFIENMSPISDSNDMDSSTVPNVAKKNNNFEKDLDAFRTVNNGSEKLNSSMFQELQTVLNLKLNSTMLEYAASFANISESLPKMSGEFTVSQFLQKMDINDWPTLKHLLNSMQSVFGNLPGFSQISNFIENLSSSGLDLKSVLKMIPAMNSSGTSLHKDAVLDLLNSFKSKISSSDTPKSPALEAAIQKISEASTLPTLLQNDLNSNDSSISDALNILKSNPLLSSLKI”, the “soluble on expression in E. coli” value was “soluble”.
In the case of “MRGRQKIAIVGAGLGGAAAATLLQQAGFDVEVFEQAPAFTRLGAGIHIGPNVMKIFRRMGLEQKLELMGSHPDFWFSRDGNTGDYLSRIPLGEFARREYGAAYITIHRGDLHALQIEAIQPGTVHFGKRLEKIVDEGDQVRLDFADGTHTVADIVIGADGIHSKIREELLGAEAPIYSGWVAHRALIRGVNLAQHADVFEPCVKWWSEDRHMMVYYTTGKRDEYYFVTGVPHEAWDFQGAFVDSSQEEMRAAFEGYHPTVQKLIDATESITKWPLRNRNPLPLWSRGRLVLLGDACHPMKPHMAQGACMAIEDAAMLTRCLQETGLSDHRTAFALYEANRKERASQVQSVSNANTWLYSQEDPAWVYGYDLYGQQLESGEAALEHHHHHH”, the “soluble on expression in E. coli” value is reported as “soluble”.
With “MGIRLKDLSKLGYRDNVARSLVVDIVGKYCKHDTKEQIAMTLSNILEHPESYKNNEIWSKLAERLSPTVLAKEFVAYDLREDPLMYKTYGGKFIETLAKQQMNLAMRLPVTVGGALMPDAHAGYGLPIGGVLATDNAVIPYAVGVDIGCRMSLTVFDAKADFLKRYSYQIKEALKDFTHFGMDGGLGFEQEHEVLDREEFRLTPLLKDLQGKAVRQLGSSGGGNHFVEFGEIALQADNVLNLPEGSYVALLSHSGSRGLGAAIAKHYSLLAREVCKLPREAQHFAWLSLDSEEGQEYWMSMNLAGDYARACHERIHLNLSKALGLKPVANVNNHHNFAWKEEIAPGRMAIVHRKGATPAQKGQAGLIPGSMATAGYLVCGKGVEESLCSASHGAGRAMSRQKAKESFTQSALKKMLSQADVTLIGGSIEEIPLAYKDIDRVMYTQETLVEVQGRFMPRIVRMNKE” the “soluble on expression in E. coli” value was “not soluble”.
With “MSDGQLVQRRRKAEEPVTEKVDEASGDSAQSSDQEDNDKGTRLTLMEQILLLGLKDREGYTSFWNDCISSGLRGCVLIELVLRGRIQLEGGGMRRKNLLNRKVTVKSSEPTGDVILDEALRHMKETNPPETVTSWIEYLSGETWNPLKLRYQLRNVRERLAKNLVEKGVLTTDKQNFLLFEITTHPLSDGNQKTKLIKEVQEAVLGKWTNDVHRMDKKMLSLIVLAHASDVLENAFAPLSDQDYEVKQMLEILFFSGKLAHFEPKNVAMKRVRSLLDLDYDQQAEKKGNDVMWAVFEAFSK” the “soluble on expression in E. coli” value was “soluble”.
For “MHKNGNNGPVIDTKWHYLGPDSEKYGPYMSKDMLFWLQAGYFNDGLQLKTENEPNYHTLGEWSQLLGTHPFSMPVHSLDATIAQMNSMRPHGAMMMVPPGLQNQFQPPMPMRFPPFLPMPLLHQMNQNGPPMGAQMHSQPPSEPIDAGSLSHTPDSENETRLNEQTLQQPPSWLIALGLAGHGRKPHHHQQILAHQHIPQMQHANVATDQVVMKSVECQTEPVEISKEQASRVLSELLGQMVIIN”, the “soluble on expression in E. coli” value was “not soluble”.
With “MNYGFVKVAAAVPRVKVADCKFNSERLEGLITIAEGKGVQILTFPEMCITGYTCGDLFAQQLLLEQAEMALIQILNSTRQLDIISILGMPVVVNSTVINAAVVIQKGKILGVVPKTYLPNYKEFYEQRWFTSALQVSENSVRLCGQIVPMGNNLLFETAETTFGIEICEDLWATVPPSSSLALQGAEIIFNLSADDEGIGKHNYLCSLISQQSARCISGYVFSSSGFGESTTDVVFAGNGLIYENGYLLARSERFCMEEQLIINEIDVECIRAERRVNTTFAANKANCPGLEHHHHHH” the “soluble on expression in E. coli” value was “not soluble”.
For “MGSDKIHHHHHHMSRIVNVKLSLKRYEYEKPFHITGSVSSESRNVEVEIVLESGVKGYGEASPSFRVNGERVEALLAIENAVREMITGIDVRNYARIFEITDRLFGFPSLKAAVQFATLDALSQELGTQVCYLLGGKRDEIETDKTVGIDTVENRVKEAKKIFEEGFRVIKIKVGENLKEDIEAVEEIAKVTRGAKYIVDANMGYTQKEAVEFARAVYQKGIDIAVYEQPVRREDIEGLKFVRFHSPFPVAADESARTKFDVMRLVKEEAVDYVNIKLMKSGISDALAIVEIAESSGLKLMIGCMGESSLGINQSVHFALGTGAFEFHDLDSHLMLKEEVFRGKFIQDGPRMRVKDQ”, the “soluble on expression in E. coli” value was “not soluble”.
In the case of “MITFIGHVSKDVNVVDGKREIAYGGGVVMGAITSSLLGVKTKVITKCTREDVSKFSFLRDNGVEVVFLKSPRTTSIENRYGSDPDTRESFLISAADPFTESDLAFIEGEAVHINPLWYGEFPEDLIPVLRRKVMFLSADAQGFVRVPENEKLVYRDWEMKEKYLKYLDLFKVDSREAETLTGTNDLRESCRIIRSFGAKIILATHASGVIVFDGNFYEASFRSWSLEGRTGRGDTCTAAFLVGFVFKKMSIEKATKFAAAVTSVKMRHPGPLRREDLEAISGDQYF”, the “soluble on expression in E. coli” value is reported as “not soluble”.
For “MDSTARGHAPLCRTSNQRGLGTRLNPYYQSTPHQPMVQSMSNPIGSYGEQGNAQIIGSSGQVLSTGPPPGLAPVQCNDFDSCYSSCDDISHPSLSRESSDPSKIDDDQTAPMIRYPAPEVVEFATKLGYSTEQLSHVLNTIGVDSRMDDVLSELVKMGLPGGKPENSGKSGSRNSPEPIMTSSASSSSASSSSSHRPIRQSVSIATSSPATSSSTPSKYNPDPSLRAVVVDGSNVAMLHGRKEVFSCAGLRECLNYFLERGHPEVLIFIPQYRREQPRSDSPITDQHILQEIERHIIYTPSRNVNGRRVVCHDDRYILRTAELKDAVIVSNDEYRDLTRENPAWRKIVEERLLMFTFVEDKSVF”, the “soluble on expression in E. coli” value was “not soluble”.
In the case of “MRGSHHHHHHGSVIFDKRIKDEEDVEKELGLPVLGSIQKFNMTNTRRSTSSLIVHEQPKSPISEKFRGIRSNIMFANPDSAVQSIVITSEAPGAGMSTIAANLAVAYAQAGYKTLIVDGDMRKPTQHYIFNLPNNEGLSSLLLNWSTYQDSIISTEIEDLDVLTSGPIPPNPSELITSRAFANLYDTLLMNYNFVIIDTPPVNTVTDAQLFSKFTGNVVYVVNSENNNKDEVKKGKELIEATGAKLLGVVLNRMPKDKSASYYAYYGTDES”, the “soluble on expression in E. coli” value is reported as “soluble”.
With “GPHSMRYYETATSRRGLGEPRYTSVGYVDDKEFVRFDSDAENPRYEPQVPWMEQEGPEYWERITQVAKGQEQWFRVNLRTLLGYYNQSAGGTHTLQRMYGCDVGSDGRLLRGYEQFAYDGCDYIALNEDLRTWTAADMAAQITRRKWEQAGAAEYYRAYLEGECVEWLHRYLKNG” the “soluble on expression in E. coli” value was “soluble”.
